According to patent US20240376151A1, “STAPLED PEPTIDES AND METHODS THEREOF” (FOG PHARMACEUTICALS, INC., priority 2022, published 2024):

Molecular target: T1, RNF31 PUB domain (Homo sapiens, UniProt Q96EP0)
T1 construct: MBP-TEV (N, cleaved yes); made in house; host or cells: E. coli BL21 (DE3) pLysS
T1 sequence (Q96EP0 1-179): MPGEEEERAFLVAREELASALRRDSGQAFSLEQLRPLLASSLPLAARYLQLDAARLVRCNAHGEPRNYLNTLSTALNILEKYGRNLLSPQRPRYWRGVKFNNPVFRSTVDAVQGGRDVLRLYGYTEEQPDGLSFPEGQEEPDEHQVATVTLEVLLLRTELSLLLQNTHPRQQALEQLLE
Test: Phage Library Screening with NGS, RNF31 PUB domain
Assay type: binding
Conditions: for Phage library screen NGS readout, Target Concentration 10 / Phage library screen NGS readout, Target Concentration 30 / Phage library screen NGS readout, Target Concentration 100 / Phage library screen NGS readout, Target Concentration 300 / Phage library screen NGS readout, Target Concentration 1000: RNF31 PUB domain clusters C41-C45; for Phage library screen NGS readout, BLANK: clusters C41-C45

[1] = target concentration 1000, first column
[2] = target concentration 1000, second column

Sequence	Phage library screen NGS readout, Target Concentration 10	Phage library screen NGS readout, Target Concentration 30	Phage library screen NGS readout, Target Concentration 100	Phage library screen NGS readout, Target Concentration 300	Phage library screen NGS readout, Target Concentration 1000 [1]	Phage library screen NGS readout, Target Concentration 1000 [2]	Phage library screen NGS readout, BLANK (column 1 of 5)	Phage library screen NGS readout, BLANK (column 2 of 5)	Phage library screen NGS readout, BLANK (column 3 of 5)	Phage library screen NGS readout, BLANK (column 4 of 5)	Phage library screen NGS readout, BLANK (column 5 of 5)
DPAIQECYLAAQVCTTY	0	0	0	4	14	13	0	0	0	0	0
DPAIWECVSAAAVCMTY	0	0	0	2	7	7	0	0	0	1	0
DPAYDWCMYAAYNCVED	2	1	1	6	41	38	0	0	0	0	0
DPATWWCLYAAEDCVNI	0	1	0	2	6	6	0	0	0	0	4
DPAWEHCLYAAYDCTHE	0	1	0	2	10	15	0	4	0	0	0
DPAYDLCLNAAVACTYV	0	2	2	19	62	71	1	2	1	0	0
DPAMEWCWDAAVFCTYS	1	1	0	6	18	16	2	1	0	1	1
DPAQEACWDAAIMCTYR	0	0	0	29	56	80	0	0	0	0	0
DPAIAQCMLAAQVCSTY	2	0	0	5	54	34	1	0	0	0	0
DPAQYQCWNAAMSCSYS	1	1	3	3	7	4	1	0	0	3	2
DPAQMECIDAAIMCSYT	0	0	0	3	5	5	0	0	0	0	0
DPAWQECVIAALVCDTY	0	0	0	3	13	8	0	0	1	4	0
DPAWDYCMYAAYDCNHS	2	0	1	8	46	29	0	1	0	0	1
DPAWEWCLYAAAECIED	0	0	0	2	12	5	0	0	0	0	0
